In US20120040915A1 (MAYO FOUNDATION FOR MEDICAL EDUCATION AND RESEARCH, published 2012):
Ends that are not written are not given here. * marks the point of attachment. Biotin = O=C1N[C@H]2[C@H](CS[C@H]2CCCCC(=O)*)N1

T1: PDZ domain of GIPC/synectin displayed on T7 phage (UniProt O14908 133-213, limits assumed)
T1 construct: domain: PDZ domain; also called GIPC/Synectin-PDZ T7 phage; GIPC-PDZ
T1 sequence (looked up): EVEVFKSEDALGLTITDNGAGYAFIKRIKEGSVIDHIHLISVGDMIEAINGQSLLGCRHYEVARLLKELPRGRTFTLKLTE


Biological target: T1, PDZ domain of GIPC/synectin displayed …
Assay: phage ELISA, biotinylated peptide on Neutravidin plate, GIPC-PDZ T7 phage
Procedure: Neutravidin plates (Pierce) were coated in duplicate with 100 μL of 10 μg/mL solutions of N-terminal biotinylated peptides ([…] (SEQ ID NO: 3) (from GAIP), KKETEV (SEQ ID NO: 12) and KKETAV (SEQ ID NO: 13) (two sequences that bind PDZ3 of PSD-95 (21), and allowed to incubate 1-2 h at 37° C. (or overnight at 4° C.) with mild shaking. The unbound peptides were washed away three times with TBS (0.5% Tween-20)-TBST buffer. Blocking buffer was prepared by diluting BSA […] in TBS stock two-fold in dH2O (for a 5% BSA final concentration) and free biotin (1 mM). Alternatively, SuperBlock in PBS buffer (Pierce) with free biotin (1 mM) was used. The blocking buffer was added to each well and allowed to incubate 30-60 min at 37° C. with mild shaking. The blocking buffer was washed away with TBST by inverting the plate and tapping off the excess with each of the 4-5 washes. The GIPC/Synectin-PDZ T7 phage to be screened with the biotinylated peptides were prepared by adding phage stock (1 mL, 20 μL) derived from one of the eight plaques (discussed above) to freshly harvested BLT5403 E. coli at OD ˜1. Once lysis was observed, the cell debris was spun down and phage lysate was used in a plaque assay (as discussed above) to determine the titer (phage titer added to wells 5×10⁹ pfu). […] The substrate was added to each well, and the development was measured at 405 nm after 30 min, 1 h and 2 h.

Row | Binder | binding result
1 | Biotin-KKETEV (Comparison peptide in the phage ELISA) [N-terminal biotinylated peptide KKETEV (SEQ ID NO: 12)] | no binding
2 | Biotin-KKETAV (Comparison peptide in the phage ELISA) [N-terminal biotinylated peptide KKETAV (SEQ ID NO: 13)] | no binding
